The subject of test [1] is VEGF, Ang-1, osteopontin, CD31 in TOV-21G tumors. Put plainly: Immunostaining of angiogenesis factors and CD31 in TOV-21G xenograft tumor sections. It is filed as in vivo, human. The following applies: treated vs untreated sections. The method, then:
TOV-21G xenograft. 5×10^6 TOV-21G ovarian cancer cells were implanted subcutaneously into individual female athymic nu/nu mice (Harlan). Treatment was initiated at day 12 after tumor implantation, when the average tumor volume reached approximately 150 mm^3. The mice received PBS, sActRIIB (30 mg/kg, SC, 1×/week) or activin-A antibody (30 mg/kg, SC, 2×/week). In a separate chemotherapy combination experiment, the mice were treated with PBS, sActRIIB (10 mg/kg, SC, 1×/week), 5-FU (50 mg/kg, IP, 3 cycles, 4 daily injections per cycle) or sActRIIB and 5-FU combination at the same doses above. Zinc-formalin fixed paraffin tumor tissue sections of 4 μm in thickness were prepared. The sections were subjected to antigen retrieval by microwave 3 min in Unmask solution (Vector H-3300) followed by incubation in 10 μg/ml Proteinase-K for 20 min and in 1% H2O2 in dH2O for 10 min at room temperature. The sections were further incubated in 0.1% Tween-20 in PBS for 3 min to permeabilize the cell membrane and in goat serum for 30 min to block non-specific binding. The sections were then incubated at room temperature with specific primary antibody for 3 hours followed by incubation in biotinylated or fluorescently labeled secondary antibody. […] The immunostained tissue sections were analyzed and photographed using a Nikon Eclipse 90i microscope equipped with DS-Ril camera. […]
For orientation: In xenograft studies the graft and the host belong to different species.

The test system of test [2] is TOV-21G, MRC-5, CCD-Lu and THP-1 cell cultures. Put plainly: VEGF and Ang-1 ELISA of cell culture medium after recombinant activin-A. It is filed as cell-based, human. The following applies: sActRIIB added with activin-A. The method, then:
The serum VEGF levels in inh-KO mice were measured by using immunoassay kit (R & D Systems), and the levels of human VEGF and Ang-1 in cell line culture medium were quantified using ELISA kits purchased from Invitrogen (VEGF) and R & D Systems (Ang-1), by following the manufacturers' recommended protocols.
(In general: In an ELISA, binding on a coated surface is turned into a signal by an enzyme label.)

Test [3] in a line: sActRIIB single dose in female Inhα KO mice: survival. It is filed as in vivo, mouse. Here is the method:
Eleven-to-fourteen-week-old female Inhα KO mice with body weight from 19.41 to 26.82 grams were subcutaneously (SC) injected with either 30 mg/kg sActRIIB or PBS. Age-matched WT littermate control mice were injected with PBS and served as baseline controls. The study ended by necropsy 2 weeks after injections. Two cohorts of mice were used in the study. Eleven-to-thirteen-week-old female Inhα KO mice with body weight from 17.7 to 27.4 grams were SC injected with either 30 mg/kg sAcLRIIB or PBS. Age-matched WT littermate control mice were injected with PBS and served as baseline controls. The withdrawal lasted for 8 weeks. At the end of the withdrawal, the sActRIIB treated mice were divided by balanced body weight into 2 groups (Group 3 and Group 4).
Group 2 and Group 3 were euthanized to examine the ovarian tumors. Group 4 received another dose of 30 mg/kg sActRIIB and the mice were euthanized together with the WT mice 4 weeks later (total 12 weeks). Mouse body weights were recorded once per week up to 12 weeks. For necropsy, mice were euthanized in a CO2 chamber. Normal ovaries in WT mice and ovarian tumors in Inhα KO mice were collected and weighed. All results were expressed as the mean±standard error of the mean (SEM). Statistical significance of difference between groups was analyzed using Student's 2-tailed t-test on MS Excel 5.0 software. […]

In test [4] the test system is TOV-21G ovarian xenograft tumors. Put plainly: sActRIIB and doxorubicin in TOV-21G tumor-bearing nude mice: tumor size and weight. The following applies: sActRIIB 10 mg/kg SC 1x/week, DOX 2 mg/kg IP 1x/week; 4-week study. The test is classed as in vivo, human. The method, then: The objective of the present study was to examine the effect of pharmacological administration of sActRIIB, doxorubicin (dox), and sActRIIB plus doxorubicin, respectively, on body weight, tumor growth and muscle mass in nude mice implanted with TOV-21G ovarian xenograft tumors. Eight-week-old female Athymic nude mice were SC injected with 0.2 mL of 5×10^6 TOV-21G cells into the left site of the lower flank of the mice. After 10 days of tumor implantation, the mice were divided into 4 groups by body weight and tumor size and then treated with vehicle, sActRIIB, doxorubicin or the combination of sActRIIB and doxorubicin. In addition, a group of non-tumor bearing mice was used as normal control and received PBS.
Mice were weighed weekly. Body weight data were recorded longitudinally. Tumor size was measured longitudinally by using an electronic caliper. The following formula was used to calculate actual tumor volume (Tomayko M and Reynolds C, 1989): (Volume of a rectangular solid tumor: Tumor volume (mm^3)=length (mm)×width (mm)×height (mm) of tumor). At the end of the study, mice in all groups were subjected to terminal necropsy and lean carcass weight (excluding skin, adipose tissue, internal organs, and head) was determined by using standard anatomical dissection procedures. […] All results were expressed as the mean±SEM (standard error of the mean). […]

These results are taken from patent US12383572B2, “Administration of an anti-activin-a compound to a subject” (AMGEN INC., priority 2013, dated 2025).

B1: sActRIIB: extracellular domain of human activin type-2B receptor fused to IgG2 Fc; full length SEQ ID NO: 21 (Table 9) (protein, listed as Homo sapiens)
chain: ETRWCIYYNANWELERTNQSGLERCEGEQDKRLHCYASWRNSSGTIELVKKGCWLDDFNCYDRQECVATEENPQVYFCCCEGNFCNERFTHLPEAGGPEVTYEPPPTAPTGGGGSVECPPCPAPPVAGPSVFLFPPKPKDTLMISRTPEVTCVVVDVSHEDPEVQFNWYVDGVEVHNAKTKPREEQFNSTFRVVSVLTVVHQDWLNGKEYKCKVSNKGLPAPIEKTISKTKGQPREPQVYTLPPSREEMTKNQVSLTCLVKGFYPSDIAVEWESNGQPENNYKTTPPMLDSDGSFFLYSKLTVDKSRWQQGNVFSCSVMHEALHNHYTQKSLSLSPGK
With B1, in test [1], the “CD31 immunostaining (newly formed microvessels)” value was “lack of such new microvessels”; the “VEGF and Ang-1 immunostaining in tumor sections” value was “virtually none in the sActRIIB-treated sections”. Moreover, in test [2], the “activin-A-induced release of angiogenic factors (ELISA)” value was “blocked completely this activin-A-induced release of angiogenic factors”. Also, the “survival rate at week 8” value in test [3] (single dose 30 mg/kg SC) worked out at 94%. Besides, in test [3] (single dose, chi-square test), the “survival curves, sActRIIB vs. PBS” value is “significantly different”. The “tumor size and tumor weight vs vehicle-treated TOV-21G group” value in test [4] is on record as “capable of inhibiting TOV-21G tumor growth”.
